Laboratory results taken from paper doi:10.1101/2024.07.02.601760, “Multi-dimensional demarcation of phylogenetic groups of plant 14-3-3 isoforms using biochemical signatures” (bioRxiv, 2024).

Columns and labels:
[1] = target: the molecule itself; test: SEC-MALS; Superdex 200 Increase 10/300, 0.8 ml/min; 65 µl of ~3 mg/ml or 100 μM per monomer loaded; 20 mM Tris-HCl pH 7.5, 150 mM NaCl, 5 mM βME, 3 mM NaN3; samples before preparative SEC; self-association, monomers to dimer (small tetramer peak for six isoforms)
[2] = target: the molecule itself; test: native gel or EMSA; native PAGE, Tris-glycine pH 8.6, 15% or 15-25% gradient acrylamide, 2 h at room temperature, samples 0.33 mg/ml in SEC buffer; self-association, dimer to monomers

B1: Arabidopsis thaliana 14-3-3 mu (natural protein, UniProt Q96299 1-263, looked up)
chain: MGSGKERDTFVYLAKLSEQAERYEEMVESMKSVAKLNVDLTVEERNLLSVGYKNVIGSRRASWRIFSSIEQKEAVKGNDVNVKRIKEYMEKVELELSNICIDIMSVLDEHLIPSASEGESTVFFNKMKGDYYRYLAEFKSGNERKEAADQSLKAYEIATTAAEAKLPPTHPIRLGLALNFSVFYYEIMNAPERACHLAKQAFDEAISELDTLNEESYKDSTLIMQLLRDNLTLWTSDISEEGGDDAHKTNGSAKPGAGGDDAE
notes: 14-3-3 mu, Arabidopsis thaliana, epsilon group; pET28a construct obtained by gene synthesis; source: E. coli BL21(DE3), purified (IMAC, thrombin cleavage of the His6-tag, subtractive IMAC, preparative SEC; aliquots before preparative SEC for SEC-MALS)
stoichiometry N [1]: 2

B2: Arabidopsis thaliana 14-3-3 epsilon (natural protein, UniProt P48347 1-254, looked up)
chain: MENEREKQVYLAKLSEQTERYDEMVEAMKKVAQLDVELTVEERNLVSVGYKNVIGARRASWRILSSIEQKEESKGNDENVKRLKNYRKRVEDELAKVCNDILSVIDKHLIPSSNAVESTVFFYKMKGDYYRYLAEFSSGAERKEAADQSLEAYKAAVAAAENGLAPTHPVRLGLALNFSVFYYEILNSPESACQLAKQAFDDAIAELDSLNEESYKDSTLIMQLLRDNLTLWTSDLNEEGDERTKGADEPQDEN
notes: 14-3-3 epsilon, Arabidopsis thaliana, epsilon group; pET28a construct obtained by gene synthesis; source: E. coli BL21(DE3), purified (IMAC, thrombin cleavage of the His6-tag, subtractive IMAC, preparative SEC; aliquots before preparative SEC for SEC-MALS)
stoichiometry N [1]: 2

B3: Arabidopsis thaliana 14-3-3 lambda (natural protein, UniProt P48349 1-248, looked up)
chain: MAATLGRDQYVYMAKLAEQAERYEEMVQFMEQLVTGATPAEELTVEERNLLSVAYKNVIGSLRAAWRIVSSIEQKEESRKNDEHVSLVKDYRSKVESELSSVCSGILKLLDSHLIPSAGASESKVFYLKMKGDYHRYMAEFKSGDERKTAAEDTMLAYKAAQDIAAADMAPTHPIRLGLALNFSVFYYEILNSSDKACNMAKQAFEEAIAELDTLGEESYKDSTLIMQLLRDNLTLWTSDMQEQMDEA
notes: 14-3-3 lambda, Arabidopsis thaliana, non-epsilon group; construct provided by Prof; Robert J. Ferl; source: E. coli C41(DE3), purified (IMAC, thrombin cleavage of the His6-tag, subtractive IMAC, preparative SEC; aliquots before preparative SEC for SEC-MALS)
stoichiometry N [1]: 2

B4: Arabidopsis thaliana 14-3-3 upsilon (natural protein, UniProt P42645 1-268, looked up)
chain: MSSDSSREENVYLAKLAEQAERYEEMVEFMEKVAKTVETEELTVEERNLLSVAYKNVIGARRASWRIISSIEQKEDSRGNSDHVSIIKDYRGKIETELSKICDGILNLLEAHLIPAASLAESKVFYLKMKGDYHRYLAEFKTGAERKEAAESTLVAYKSAQDIALADLAPTHPIRLGLALNFSVFYYEILNSSDRACSLAKQAFDEAISELDTLGEESYKDSTLIMQLLRDNLTLWTSDLNDEAGDDIKEAPKEVQKVDEQAQPPPSQ
notes: 14-3-3 upsilon, Arabidopsis thaliana (Col-0), non-epsilon group; source: E. coli BL21(DE3), purified (IMAC, thrombin cleavage of the His6-tag, subtractive IMAC, preparative SEC; aliquots before preparative SEC for SEC-MALS)
stoichiometry N [1]: 2

B5: Arabidopsis thaliana 14-3-3 omega (natural protein)
chain: MASGREEFVYMAKLAEQAERYEEMVEFMEKVSAAVDGDELTVEERNLLSVAYKNVIGARRASWRIISSIEQKEESRGNDDHVTAIREYRSKIETELSGICDGILKLLDSRLIPAAASGDSKVFYLKMKGDYHRYLAEFKTGQERKDAAEHTLAAYKSAQDIANAELAPTHPIRLGLALNFSVFYYEILNSPDRACNLAKQAFDEAIAELDTLGEESYKDSTLIMQLLRDNLTLWTSD
notes: 14-3-3 omega, Arabidopsis thaliana, non-epsilion group; pET28a construct obtained by gene synthesis; source: E. coli BL21(DE3), purified (IMAC, thrombin cleavage of the His6-tag, subtractive IMAC, preparative SEC; aliquots before preparative SEC for SEC-MALS)
stoichiometry N [1]: 2

B6: Arabidopsis thaliana 14-3-3 phi (natural protein, UniProt P46077 1-267, looked up)
chain: MAAPPASSSAREEFVYLAKLAEQAERYEEMVEFMEKVAEAVDKDELTVEERNLLSVAYKNVIGARRASWRIISSIEQKEESRGNDDHVTTIRDYRSKIESELSKICDGILKLLDTRLVPASANGDSKVFYLKMKGDYHRYLAEFKTGQERKDAAEHTLTAYKAAQDIANAELAPTHPIRLGLALNFSVFYYEILNSPDRACNLAKQAFDEAIAELDTLGEESYKDSTLIMQLLRDNLTLWTSDMQDESPEEIKEAAAPKPAEEQKEI
notes: 14-3-3 phi, Arabidopsis thaliana, non-epsilon group; construct provided by Prof; Robert J. Ferl; source: E. coli C41(DE3), purified (IMAC, thrombin cleavage of the His6-tag, subtractive IMAC, preparative SEC; aliquots before preparative SEC for SEC-MALS)
stoichiometry N [1]: 2

B7: Arabidopsis thaliana 14-3-3 chi (natural protein, UniProt P42643 1-267, looked up)
chain: MATPGASSARDEFVYMAKLAEQAERYEEMVEFMEKVAKAVDKDELTVEERNLLSVAYKNVIGARRASWRIISSIEQKEESRGNDDHVSLIRDYRSKIETELSDICDGILKLLDTILVPAAASGDSKVFYLKMKGDYHRYLAEFKSGQERKDAAEHTLTAYKAAQDIANSELAPTHPIRLGLALNFSVFYYEILNSPDRACNLAKQAFDEAIAELDTLGEESYKDSTLIMQLLRDNLTLWTSDMQDDVADDIKEAAPAAAKPADEQQS
notes: 14-3-3 chi, Arabidopsis thaliana, non-epsilon group; source: E. coli BL21(DE3), purified (IMAC, thrombin cleavage of the His6-tag, subtractive IMAC, preparative SEC; aliquots before preparative SEC for SEC-MALS)
stoichiometry N [1]: 2

B8: Arabidopsis thaliana 14-3-3 psi (natural protein, UniProt P42644 1-255, looked up)
chain: MSTREENVYMAKLAEQAERYEEMVEFMEKVAKTVDVEELSVEERNLLSVAYKNVIGARRASWRIISSIEQKEESKGNEDHVAIIKDYRGKIESELSKICDGILNVLEAHLIPSASPAESKVFYLKMKGDYHRYLAEFKAGAERKEAAESTLVAYKSASDIATAELAPTHPIRLGLALNFSVFYYEILNSPDRACSLAKQAFDDAIAELDTLGEESYKDSTLIMQLLRDNLTLWTSDMTDEAGDEIKEASKPDGAE
notes: 14-3-3 psi, Arabidopsis thaliana, non-epsilon group; construct provided by Prof; Robert J. Ferl; source: E. coli C41(DE3), purified (IMAC, thrombin cleavage of the His6-tag, subtractive IMAC, preparative SEC; aliquots before preparative SEC for SEC-MALS)
stoichiometry N [1]: 2

B9: Arabidopsis thaliana 14-3-3 iota T32F (natural protein, UniProt Q9C5W6 1-268, looked up)
chain: MSSSGSDKERETFVYMAKLSEQAERYDEMVEFMKKVARVNSELTVEERNLLSVGYKNVIGARRASWRIMSSIEQKEESKGNESNVKQIKGYRQKVEDELANICQDILTIIDQHLIPHATSGEATVFYYKMKGDYYRYLAEFKTEQERKEAAEQSLKGYEAATQAASTELPSTHPIRLGLALNFSVFYYEIMNSPERACHLAKQAFDEAIAELDTLSEESYKDSTLIMQLLRDNLTLWTSDLPEDGGEDNIKTEESKQEQAKPADATEN
notes: 14-3-3 iota, Arabidopsis thaliana, single mutant T32F made by megaprimer PCR on pET28a-14-3-3 iota; Same limits as m9; also called M1; source: E. coli BL21(DE3), purified (IMAC, thrombin cleavage of the His6-tag, subtractive IMAC, preparative SEC)
binding result [2]: binds

B10: Arabidopsis thaliana 14-3-3 iota (natural protein, UniProt Q9C5W6 1-268, looked up)
chain: MSSSGSDKERETFVYMAKLSEQAERYDEMVETMKKVARVNSELTVEERNLLSVGYKNVIGARRASWRIMSSIEQKEESKGNESNVKQIKGYRQKVEDELANICQDILTIIDQHLIPHATSGEATVFYYKMKGDYYRYLAEFKTEQERKEAAEQSLKGYEAATQAASTELPSTHPIRLGLALNFSVFYYEIMNSPERACHLAKQAFDEAIAELDTLSEESYKDSTLIMQLLRDNLTLWTSDLPEDGGEDNIKTEESKQEQAKPADATEN
notes: 14-3-3 iota, Arabidopsis thaliana, epsilon group; pET28a construct obtained by gene synthesis; also called iota WT; source: E. coli BL21(DE3), purified (IMAC, thrombin cleavage of the His6-tag, subtractive IMAC, preparative SEC; aliquots before preparative SEC for SEC-MALS)
stoichiometry N [1]: 2

B11: Arabidopsis thaliana 14-3-3 iota G54A (natural protein, UniProt Q9C5W6 1-268, looked up)
chain: MSSSGSDKERETFVYMAKLSEQAERYDEMVETMKKVARVNSELTVEERNLLSVAYKNVIGARRASWRIMSSIEQKEESKGNESNVKQIKGYRQKVEDELANICQDILTIIDQHLIPHATSGEATVFYYKMKGDYYRYLAEFKTEQERKEAAEQSLKGYEAATQAASTELPSTHPIRLGLALNFSVFYYEIMNSPERACHLAKQAFDEAIAELDTLSEESYKDSTLIMQLLRDNLTLWTSDLPEDGGEDNIKTEESKQEQAKPADATEN
notes: 14-3-3 iota, Arabidopsis thaliana, single mutant G54A made by megaprimer PCR on pET28a-14-3-3 iota; Same limits as m9; also called M3; source: E. coli BL21(DE3), purified (IMAC, thrombin cleavage of the His6-tag, subtractive IMAC, preparative SEC)
binding result [2]: binds

B12: Arabidopsis thaliana 14-3-3 iota N84H (natural protein, UniProt Q9C5W6 1-268, looked up)
chain: MSSSGSDKERETFVYMAKLSEQAERYDEMVETMKKVARVNSELTVEERNLLSVGYKNVIGARRASWRIMSSIEQKEESKGNESHVKQIKGYRQKVEDELANICQDILTIIDQHLIPHATSGEATVFYYKMKGDYYRYLAEFKTEQERKEAAEQSLKGYEAATQAASTELPSTHPIRLGLALNFSVFYYEIMNSPERACHLAKQAFDEAIAELDTLSEESYKDSTLIMQLLRDNLTLWTSDLPEDGGEDNIKTEESKQEQAKPADATEN
notes: 14-3-3 iota, Arabidopsis thaliana, single mutant N84H made by megaprimer PCR on pET28a-14-3-3 iota; Same limits as m9; also called M2; source: E. coli BL21(DE3), purified (IMAC, thrombin cleavage of the His6-tag, subtractive IMAC, preparative SEC)
binding result [2]: binds

B13: Arabidopsis thaliana 14-3-3 nu (natural protein, UniProt Q96300 1-265, looked up)
chain: MSSSREENVYLAKLAEQAERYEEMVEFMEKVAKTVDTDELTVEERNLLSVAYKNVIGARRASWRIISSIEQKEESRGNDDHVSIIKDYRGKIETELSKICDGILNLLDSHLVPTASLAESKVFYLKMKGDYHRYLAEFKTGAERKEAAESTLVAYKSAQDIALADLAPTHPIRLGLALNFSVFYYEILNSPDRACSLAKQAFDEAISELDTLGEESYKDSTLIMQLLRDNLTLWNSDINDEAGGDEIKEASKHEPEEGKPAETGQ
notes: 14-3-3 nu, Arabidopsis thaliana (Col-0), non-epsilon group; source: E. coli BL21(DE3), purified (IMAC, thrombin cleavage of the His6-tag, subtractive IMAC, preparative SEC; aliquots before preparative SEC for SEC-MALS)
stoichiometry N [1]: 2
